According to PMC12442453 (2025):

Molecular target: T1, human EPOR ectodomain (ECD) fused to a human Fc domain (EPOR-Fc) (human, UniProt P19235 25-250)
T1 chain: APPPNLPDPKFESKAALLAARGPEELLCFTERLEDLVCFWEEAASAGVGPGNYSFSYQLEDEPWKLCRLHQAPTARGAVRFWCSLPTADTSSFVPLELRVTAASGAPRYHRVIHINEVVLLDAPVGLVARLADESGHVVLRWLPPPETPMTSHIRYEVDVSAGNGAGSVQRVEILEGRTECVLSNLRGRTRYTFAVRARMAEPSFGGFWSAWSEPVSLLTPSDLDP
Test: ELISA

B1: Db-Fc 1.1 (Fc fusion)
chain 1: EVQLVESGGGLVQPGGSLRLSCAASGFNLRSYYMHWVRQAPGKGLEWVASISPYYSYTYYADSVKGRFTISADTSKNTAYLQMNSLRAEDTAVYYCARHGYGAMDYWGQGTLVTVSS
chain 2: DIQMTQSPSSLSASVGDRVTITCRASQSVSSAVAWYQQKPGKAPKLLIYSASSLYSGVPSRFSGSRSGTDFTLTISSLQPEDFATYYCQQSSYSLITFGQGTKVEIK
EC50: 0.9 nM
